Results from the supplement of paper PMC10724198.
± gives the standard deviation of the averaged measurements.

test system: Saccharomyces cerevisiae; assay: protein stability index of tFT-peptide fusion (C-terminal peptide) (PSI (0-1 scale)); higher = more stable (slower turnover); details: genetic background: wild type; temperature: 30 C
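Note: PSI is a weighted mean of sequencing reads over stability bins, variants kept only with over 10 reads, mCherry proximal and sfGFP distal, peptide attached via GGGS linker.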

VGDGAVGKTRGD and VGDVGESMWGLG are within error of each other in protein stability index: 0.681 ± 0.039 for the first, 0.727 ± 0.091 for the second.

VGEGWGAMIMQE and VGEGWWQKGMEV are within error of each other in protein stability index: 0.737 ± 0.038 for the first, 0.676 ± 0.079 for the second.

VGEVLCVGGAFY and VGFISRIKSLYV are within error of each other in protein stability index: 0.659 ± 0.024 for the first, 0.648 ± 0.0096 for the second.

VGGCRVLCVGLG and VGGGCGVRVVVV are within error of each other in protein stability index: 0.651 ± 0.06 for the first, 0.684 ± 0.05 for the second.

VGGGEVRAWGLR and VGGGGGGCLVDC are within error of each other in protein stability index: 0.661 ± 0.008 for the first, 0.653 ± 0.028 for the second.

VGGGVGGRDGAS and VGGRGGGRGVVG are within error of each other in protein stability index: 0.659 ± 0.051 for the first, 0.672 ± 0.0073 for the second.

VGGRLRECVRVG and VGGRVGERRGAP are within error of each other in protein stability index: 0.628 ± 0.078 for the first, 0.656 ± 0.044 for the second.

VGGVWGGGWGHW and VGGWGGFGLFFP are within error of each other in protein stability index: 0.736 ± 0.021 for the first, 0.742 ± 0.098 for the second.

Compared with VGIGLTLSLRFS, VGLGEWMGALGV is higher in protein stability index: 0.598 ± 0.0066 for the first, 0.6634 ± 0.006 for the second.

VGLGFVVNAPGL and VGLRPPRPAPPS are within error of each other in protein stability index: 0.73 ± 0.1 for the first, 0.623 ± 0.035 for the second.

Going from VGMCVGEVVAIV to VGPDGFWGVVLG, the protein stability index rises from 0.521 ± 0.015 to 0.719 ± 0.023.

VGPVGSVGVGGR and VGPWQVQRLLWT are within error of each other in protein stability index: 0.654 ± 0.013 for the first, 0.623 ± 0.056 for the second.

First: VGRLGPMVGLLL
Second: VGRRDNHPTEKT
The protein stability index of the first is lower: 0.6 ± 0.083 for the first, 0.73 ± 0.025 for the second.

VGRRTRGHDGVT and VGSGEVFEVMEG are within error of each other in protein stability index: 0.659 ± 0.078 for the first, 0.64 ± 0.036 for the second.

VGSSSRSLFWCF and VGSWSVICGGVL are within error of each other in protein stability index: 0.689 ± 0.04 for the first, 0.6929 ± 0.0061 for the second.

VGTGPGLKRPCH and VGVEIKITKEKK are within error of each other in protein stability index: 0.774 ± 0.035 for the first, 0.739 ± 0.038 for the second.

First: VGVGPVGDVWLI
Second: VGWRCWVGSVGL
The protein stability index of the first is higher: 0.6979 ± 0.0027 for the first, 0.6686 ± 0.0029 for the second.

Going from VGYGRGGAVGVE to VHLCLPPLPLHT, the protein stability index falls from 0.695 ± 0.012 to 0.651 ± 0.019.

Going from VHPHPRSIKRER to VIARALGLFLSD, the protein stability index rises from 0.6324 ± 0.0026 to 0.693 ± 0.035.

VIEIGEYSGNGK and VIFFLPWYTPHP are within error of each other in protein stability index: 0.707 ± 0.046 for the first, 0.6919 ± 0.0023 for the second.

Going from VIGSKQERRAEK to VIGWSGGCRWSV, the protein stability index rises from 0.6905 ± 0.0016 to 0.73 ± 0.027.

VIKESKKKTKKI and VIPYLISSLYAV are within error of each other in protein stability index: 0.544 ± 0.044 for the first, 0.691 ± 0.13 for the second.

VIRDISAFSQVV and VKGRKNEGPGKR are within error of each other in protein stability index: 0.677 ± 0.07 for the first, 0.748 ± 0.065 for the second.

Going from VKGYGLILQISV to VKKHRQTNGMVY, the protein stability index rises from 0.56537 ± 0.00043 to 0.739 ± 0.018.

Going from VKVYHVPSTFSV to VLCGALRIVGHK, the protein stability index falls from 0.681 ± 0.029 to 0.603 ± 0.017.

Compared with VLCKDGHRGFGC, VLCLRSNRHGVF is higher in protein stability index: 0.589 ± 0.057 for the first, 0.698 ± 0.015 for the second.

VLCRVALWGVGG and VLEGAWPGAEAV are within error of each other in protein stability index: 0.653 ± 0.02 for the first, 0.722 ± 0.083 for the second.

VLFCQLFCDFFG and VLFGLFAPCFLF are within error of each other in protein stability index: 0.631 ± 0.084 for the first, 0.59 ± 0.019 for the second.

VLFGSVSCCLLW and VLFLLSGPAILL are within error of each other in protein stability index: 0.686 ± 0.043 for the first, 0.682 ± 0.0075 for the second.

Going from VLFSSDLIVPQL to VLGGLGWVCWVV, the protein stability index falls from 0.725 ± 0.018 to 0.531 ± 0.013.

VLGLALYTLSTS and VLLAVGELFRVD are within error of each other in protein stability index: 0.68 ± 0.041 for the first, 0.649 ± 0.0084 for the second.

Compared with VLLEGCQSYVIW, VLLLGYDRGWDD is higher in protein stability index: 0.652 ± 0.03 for the first, 0.718 ± 0.015 for the second.

VLLLLPASTPSL and VLMGAGGHSWER are within error of each other in protein stability index: 0.696 ± 0.079 for the first, 0.725 ± 0.037 for the second.

First: VLNCVGLSLLVE
Second: VLPPLPGPPTLS
The protein stability index of the first is lower: 0.6068 ± 0.00076 for the first, 0.6945 ± 0.0033 for the second.

Going from VLPPPRHPLPRP to VLSCCTAVAYPF, the protein stability index falls from 0.698 ± 0.04 to 0.593 ± 0.028.

VLSLLPSLLPPF and VLSSSPFLHFGC are within error of each other in protein stability index: 0.7408 ± 0.0061 for the first, 0.663 ± 0.072 for the second.

VLSVGQVGRCVS and VLTWGLLGRSAF are within error of each other in protein stability index: 0.642 ± 0.043 for the first, 0.729 ± 0.063 for the second.

VLYCYPYLVLPP and VNATDYDGQPIT are within error of each other in protein stability index: 0.678 ± 0.013 for the first, 0.679 ± 0.11 for the second.

Going from VNENNQKGNKKT to VNIHVCSYGIFA, the protein stability index falls from 0.654 ± 0.12 to 0.5071 ± 0.0025.

Compared with VNKNKKNVEYIK, VNQVRVSICDLL is higher in protein stability index: 0.657 ± 0.013 for the first, 0.69263 ± 0.00047 for the second.

Compared with VPCLVHEVYDEV, VPFPHALLSALP is lower in protein stability index: 0.732 ± 0.029 for the first, 0.638 ± 0.037 for the second.

VPGIGGGVSVRG and VPLCSGKLAQIS are within error of each other in protein stability index: 0.612 ± 0.14 for the first, 0.757 ± 0.0085 for the second.

Going from VPLPPPFPASLT to VPPHSLPPPTHP, the protein stability index rises from 0.61 ± 0.027 to 0.753 ± 0.048.

VPPPPPSRSRPV and VPPPTRRTPPAP are within error of each other in protein stability index: 0.713 ± 0.032 for the first, 0.734 ± 0.052 for the second.

Going from VPPVLRPLPPSP to VPRFTPYRAIFP, the protein stability index falls from 0.72 ± 0.025 to 0.591 ± 0.016.

VPRTPPTTSWFP and VPSPHLQPTVSP are within error of each other in protein stability index: 0.682 ± 0.026 for the first, 0.654 ± 0.0074 for the second.

VPTELGGTLIPT and VPVRLRSGGVSP are within error of each other in protein stability index: 0.664 ± 0.11 for the first, 0.66 ± 0.058 for the second.

Compared with VPVVQPNRSALI, VQQSRTQKDQHV is lower in protein stability index: 0.7454 ± 0.0071 for the first, 0.623 ± 0.054 for the second.

Compared with VQRPALPPRHPP, VRARRSSREVNY is higher in protein stability index: 0.612 ± 0.005 for the first, 0.755 ± 0.05 for the second.

VRCCFGGRGGRA and VRCGGRGRAGKG are within error of each other in protein stability index: 0.637 ± 0.035 for the first, 0.634 ± 0.03 for the second.

VRCWEDGFLDSS and VREMMGFWFVPL are within error of each other in protein stability index: 0.7293 ± 0.0042 for the first, 0.691 ± 0.11 for the second.

VRFPCGFCKKLS and VRFYVFSFSNWL are within error of each other in protein stability index: 0.637 ± 0.036 for the first, 0.586 ± 0.031 for the second.

VRGGVSWGMRGG and VRGVGGLWVGAV are within error of each other in protein stability index: 0.634 ± 0.089 for the first, 0.684 ± 0.012 for the second.

VRGVGLVDVVGL and VRIIVVDLGGRR are within error of each other in protein stability index: 0.727 ± 0.12 for the first, 0.684 ± 0.0082 for the second.

VRKKGKKKKKDK and VRKKRKKELAKV are within error of each other in protein stability index: 0.678 ± 0.031 for the first, 0.794 ± 0.086 for the second.

VRQSQIKHVVVQ and VRRLSASSDGKI are within error of each other in protein stability index: 0.627 ± 0.019 for the first, 0.761 ± 0.14 for the second.

VRRWGKWSIVGW and VRSILEGRRGEK are within error of each other in protein stability index: 0.736 ± 0.03 for the first, 0.709 ± 0.032 for the second.

VRSTPLKEMMRH and VRVRSLEGWGMG are within error of each other in protein stability index: 0.681 ± 0.0092 for the first, 0.6687 ± 0.0048 for the second.

VRVSSSDILICL and VRWSRFCLAFPV are within error of each other in protein stability index: 0.675 ± 0.079 for the first, 0.605 ± 0.04 for the second.

VSDTRELSSDQI and VSFGFHKWCHSR are within error of each other in protein stability index: 0.656 ± 0.02 for the first, 0.638 ± 0.015 for the second.

VSGGRQVGGGGW and VSGGRQVGWGGW are within error of each other in protein stability index: 0.72 ± 0.088 for the first, 0.686 ± 0.011 for the second.

Compared with VSGICCRGVLLL, VSGLGAHEPDKL is higher in protein stability index: 0.6268 ± 0.00045 for the first, 0.667 ± 0.0072 for the second.

VSGSTGVWCRWG and VSGVREGCSEME are within error of each other in protein stability index: 0.668 ± 0.048 for the first, 0.773 ± 0.11 for the second.

VSLGHGYVFRRV and VSMPVGWRSWGG are within error of each other in protein stability index: 0.6921 ± 0.0058 for the first, 0.694 ± 0.013 for the second.

VSPTRSRPSSPA and VSRLTVIPAVQT are within error of each other in protein stability index: 0.692 ± 0.055 for the first, 0.652 ± 0.027 for the second.

First: VSRRCVALRVGN
Second: VSRVDGAGHSAV
The protein stability index of the first is lower: 0.579 ± 0.017 for the first, 0.66 ± 0.0088 for the second.

VSSAGAQHQVTH and VSSRWGGWWNGV are within error of each other in protein stability index: 0.667 ± 0.025 for the first, 0.655 ± 0.046 for the second.

VSSVEHCLGHCR and VSVFNFPSLFVG are within error of each other in protein stability index: 0.738 ± 0.11 for the first, 0.66 ± 0.063 for the second.

Compared with VSVGVCGYKVWG, VSVILAGLFWIT is lower in protein stability index: 0.709 ± 0.1 for the first, 0.473 ± 0.038 for the second.

VSVLCADGVLRM and VSVLCGSRLAFE are within error of each other in protein stability index: 0.725 ± 0.028 for the first, 0.685 ± 0.04 for the second.

VSVRLAINRKEW and VSWVMSEMRKGE are within error of each other in protein stability index: 0.6738 ± 0.00093 for the first, 0.697 ± 0.031 for the second.

VSWVWMGRLGYC and VTCALGIGGVGV are within error of each other in protein stability index: 0.657 ± 0.02 for the first, 0.716 ± 0.05 for the second.

VTFRCHHSRQVM and VTGCAVLSGAGE are within error of each other in protein stability index: 0.725 ± 0.14 for the first, 0.675 ± 0.051 for the second.

VTGSHARFSVPE and VTHDSACSSRLA are within error of each other in protein stability index: 0.658 ± 0.013 for the first, 0.683 ± 0.019 for the second.

VTHREFAGSALG and VTLSYDTKWLWL are within error of each other in protein stability index: 0.698 ± 0.022 for the first, 0.665 ± 0.07 for the second.

VTPLPPPRTFLP and VTPPTPPSRASP are within error of each other in protein stability index: 0.67 ± 0.07 for the first, 0.667 ± 0.02 for the second.

Going from VTPVPFRTMMST to VTREEVSAGRGR, the protein stability index rises from 0.571 to 0.657 ± 0.058.

Going from VTRLTGKLVAEK to VTSSLHAVPWSR, the protein stability index rises from 0.576 ± 0.027 to 0.693 ± 0.0088.

First: VTTDLALCGSVC
Second: VTTPHPPAPPPP
The protein stability index of the first is lower: 0.624 ± 0.016 for the first, 0.765 ± 0.02 for the second.

Going from VTTQELRCRPEG to VTVCQTRGADSV, the protein stability index falls from 0.636 ± 0.019 to 0.579 ± 0.01.
